For one molecule, cell death and PD-L1 expression results are on record in patent publication US11147875B2, “Compositions, combinations and related methods for photoimmunotherapy” (priority 2015, dated 2021).

For test [1], the system named is BxPC3 cells. The test can be described thus: Effect of interferon gamma on cell death. It counts as cell-based. The following applies: 0 ng/mL to 3.75 μg/mL, 18 hours. The protocol: BxPC3 cells (#CRL-1687, ATCC, Manassas Va.) were seeded in 96 well black, clear-flat bottom dishes at 5000 cells per well, and placed in at 37° C., 5% CO2 incubator. The following day, the cells were washed once with RPMI 1640 supplemented with 10% FBS and 1% Penicillin/Streptomyocin (complete culture media). The cells were then incubated for 18 hours with complete culture media containing different concentrations of recombinant human Interferon Gamma (IFNgamma) (carrier free) (Cat No: 570202, BioLegend, San Diego, Calif.) ranging from 0 ng/mL to 3.75 μg/mL.
After 18 hours, the media containing different concentrations of interferon gamma was replaced with complete culture media containing 1× CellTox Green (Cat No: G8731, Promega, Madison, Wis.). […] The CellTox Green fluorescence signal was measured at 24.5 hours after light treatment using a fluorescence plate reader. The cells were then lysed with detergent, incubated at 37° C. for 30 minutes, and the CellTox Green fluorescence signal was measured again post lysis. The percent dead cells was calculated by taking the ratio between background (1× CellTox Green in complete culture media without cells) subtracted CellTox Green signal per well prior to and post lysis and multiplying the ratio by 100.

The subject of test [2] is PD-L1. The test can be described thus: Effect of interferon gamma on PD-L1 expression, flow cytometry. The test is classed as cell-based. The following applies: 375 pg/mL, 37.5 ng/mL, 18 hours; BxPC3 cells. As to the method: BxPC3 cells were seeded in 12 well dishes at 145,000 cells per well, and placed at 37° C. in a 5% CO2 incubator. The following day, the cells were washed once with RPMI 1640 supplemented with 10% FBS and 1% Penicillin/Streptomyocin (complete culture media). The cells were then incubated for 18 hours with complete culture media alone, complete culture media containing 375 pg/mL of recombinant human Interferon Gamma (carrier free) (Cat No: 570202, BioLegend, San Diego, Calif.), or complete culture media containing 37.5 ng/mL recombinant human Interferon Gamma (carrier free). After the 18 hour incubation with or without recombinant interferon gamma, the BxPC3 cells were washed one time with complete culture media. […]
After the one hour incubation, the cells were washed three times with phosphate buffer saline (pH 7) and incubated with enzyme free cell dissociation buffer (Catalog No: S-014-C, EMD Millipore, Billerica, Mass.) until cells were detached. After the cells detached, phosphate buffer saline containing 0.5% bovine serum albumin fraction V (Catalog No: 15260-037, ThermoFisher Scientific, Waltham, Mass.) was added to the cells, and the samples were immediately analyzed by flow cytometry for PD-L1 expression based on the fluorescent signal from the IR700 dye of the anti-PD-L1-IRDye 700DX. […]
(A flow cytometer gives signals particle by particle.)

B1: IFNgamma: recombinant human Interferon Gamma (carrier free) (protein, UniProt P01579 24-161, looked up)
Interferon gamma: QDPYVKEAENLKKYFNAGHSDVADNGTLFLGILKNWKEESDRKIMQSQIVSFYFKLFKNFKDDQSIQKSVETIKEDMNVKFFNSNKKKRDDFEKLTNYSVTDLNVQRKAIHELIQVMAELSPAAKTGKRKRSQMLFRG
With B1, the cell death result in test [1] was “dose-dependent increase in cell death”. The PD-L1 expression result in test [2] was “dose-dependent increase in PD-L1 expression”.
